Results on 6 molecules are retold here after patent US20250122303A1 (HUMMINGBIRD BIOSCIENCE PTE, published 2025).

In experiment [1] the target is T1, His-tagged FcγRIIIa (V158) (human, UniProt P08637 17-208).
T1 construct: not shown: His tag
Kind of experiment: Bio-Layer Interferometry; His-tagged FcγRIIIa (V158) on anti-Penta-HIS tips, antibody in solution. As to the method:
(§1) All measurements were performed at 25° C. with agitation at 1000 rpm. […] Sensograms were referenced for buffer effects and then fitted using the Octet QK384 user software (Pall ForteBio, USA). Kinetic responses were subjected to a global fitting using a one site binding model to obtain values for association (Kₒₙ), dissociation (Koff) rate constants and the equilibrium dissociation constant (KD). Only curves that could be reliably fitted with the software (R²>0.90) were included in the analysis.
BLI was performed as described above.
On the technique in general: Biolayer interferometry detects binding as a change in optical thickness at a sensor tip.

The target in experiment [2] is T2, human HER3 expressed on cells (HEK293 HER3 O/E cells) (human, UniProt P21860 20-1342).
T2 construct: Also used here for HER3 on U2OS cells of the PathHunter kit and on cancer cell lines; also called HEK293 cells transfected with vector encoding human HER3; human HER3-expressing cells
Kind of experiment: flow cytometry, HEK293 and HEK293 cells overexpressing human HER3, 20 ug/ml antibody, FITC anti-Fc secondary. As to the method:
The cells were washed thrice with FACS buffer (PBS with 5 mM EDTA and 0.5% BSA) and resuspended in FITC-conjugated anti-FC antibody (Invitrogen, USA) for 40 min at 2-8° C. Cells were washed again and resuspended in 200 μL of FACS flow buffer (PBS with 5 mM EDTA) for flow cytometric analysis using MACSQuant 10 (Miltenyi Biotec, Germany). After acquisition, all raw data were analyzed using Flowlogic software. Cells were gated using forward and side scatter profile percentage of positive cells was determined for native and overexpressing cell populations.
(In general: A flow cytometer gives signals particle by particle.)

Experiment [3] concerns the target T3, His-tagged human HER3 (human, UniProt P21860 20-643).
T3 construct: Antigen of the BLI experiments and of the HER2-Fc dimerisation ELISA; also called HER3 His; not shown: His tag
Kind of experiment: plate ELISA dimerisation assay; HER2-Fc coated, constant HER3 His and NRG, antibody varied; blocked partner HER2-Fc. As to the method:
Plate-based ELISA dimerisation assays were carried out according to standard protocols. Plates were coated with 1 μg/ml HER2-Fc protein. […] Plates were then washed and incubated for 1 hour with secondary anti-HIS HRP antibody. […] The absorbance was read at 450 nm.
Background: ELISA stands for enzyme-linked immunosorbent assay.

In experiment [4] the target is T3, His-tagged human HER3. Nature of the experiment: BLI (Octet QK384), antibody on anti-human IgG capture tips, His-tagged human HER3 in solution, global one-site fit. As to the method:
as §1, with “The anti-HER3 antibody clones in IgG1 format were analysed for binding affinity to human HER3. Bio-Layer Interferometry (BLI) experiments were performed using the Octet QK384 system (ForteBio). anti-Human IgG Capture (AHC) Octet sensor tips (Pall ForteBio, USA) were used to anti-HER3 antibodies (25 nM). All” for “All”

Another experiment addresses T4, FcRn (human, UniProt P55899).
T4 construct: recombinant; also called human FcRn; gene FCGRT (so in the source)
Nature of the experiment: Bio-Layer Interferometry (determined as described in Example 7).

A further experiment addresses T5, moFcRn (mouse, UniProt Q61559).
T5 construct: recombinant; also called mouse FcRn; gene FCGRT (so in the source)
T5 sequence (receptor, looked up): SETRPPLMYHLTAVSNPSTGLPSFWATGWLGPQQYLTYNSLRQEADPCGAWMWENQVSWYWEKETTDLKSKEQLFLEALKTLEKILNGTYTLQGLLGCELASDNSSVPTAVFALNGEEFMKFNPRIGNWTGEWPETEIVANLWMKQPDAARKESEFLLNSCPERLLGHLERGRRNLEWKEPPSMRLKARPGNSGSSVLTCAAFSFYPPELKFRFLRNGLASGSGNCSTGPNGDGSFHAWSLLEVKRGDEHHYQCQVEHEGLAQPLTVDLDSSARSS
T5 sequence (looked up): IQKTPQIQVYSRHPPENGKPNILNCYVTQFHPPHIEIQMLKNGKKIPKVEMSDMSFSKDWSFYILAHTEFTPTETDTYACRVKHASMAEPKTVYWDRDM
The description is as above.

The target in experiment [5] is T1, His-tagged FcγRIIIa (V158). Described as above.
The target of another experiment is T6, FcgRIIA (R167) (human, UniProt P12318).
T6 construct: recombinant; also called CD32A; hFcγRIIa167R
T6 sequence (receptor, looked up): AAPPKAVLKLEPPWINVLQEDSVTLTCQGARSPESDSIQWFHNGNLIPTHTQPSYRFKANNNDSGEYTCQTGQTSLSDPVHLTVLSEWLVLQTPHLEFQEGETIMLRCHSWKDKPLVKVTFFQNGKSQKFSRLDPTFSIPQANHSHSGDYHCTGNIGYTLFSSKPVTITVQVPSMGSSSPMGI
The experiment is described as above.

In the next experiment the target is T7, FcgRIIA (H167) (human, UniProt P12318).
T7 construct: recombinant; also called CD32A; hFcγRIIa167H
T7 sequence (receptor, looked up): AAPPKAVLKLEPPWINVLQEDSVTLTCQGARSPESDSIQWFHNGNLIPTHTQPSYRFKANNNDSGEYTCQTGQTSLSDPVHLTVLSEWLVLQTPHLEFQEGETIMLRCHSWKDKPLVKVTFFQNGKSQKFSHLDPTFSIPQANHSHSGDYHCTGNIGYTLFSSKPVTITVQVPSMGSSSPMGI
The experiment is described as above.

The target in a further experiment is T8, FcgRIIIA (F158) (human, UniProt P08637).
T8 construct: recombinant; also called CD16A; hFcγRIIIa158F
Described as above.

For a further experiment, the target named is T9, FcgRIIB (human, UniProt P31994).
T9 construct: recombinant; also called CD32B; hFcγRIIb
T9 sequence (receptor, looked up): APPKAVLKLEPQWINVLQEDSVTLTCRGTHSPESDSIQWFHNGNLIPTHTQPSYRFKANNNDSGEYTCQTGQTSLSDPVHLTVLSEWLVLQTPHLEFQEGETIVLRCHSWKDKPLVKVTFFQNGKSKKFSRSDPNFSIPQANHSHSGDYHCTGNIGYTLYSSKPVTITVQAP
Described as above.

For the next experiment, the target named is T10, moFcgRIV.
T10 construct: also called CD16-2; mFcγRIV
T10 chain: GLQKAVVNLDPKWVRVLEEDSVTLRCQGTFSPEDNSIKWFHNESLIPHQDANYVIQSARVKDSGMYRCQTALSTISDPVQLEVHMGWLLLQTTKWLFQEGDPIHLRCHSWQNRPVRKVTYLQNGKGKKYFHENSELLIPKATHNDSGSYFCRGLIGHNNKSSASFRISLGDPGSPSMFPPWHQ
Described as above.

In experiment [6] the target is T3, His-tagged human HER3. Kind of experiment: Bio-Layer Interferometry (Octet QK384); antibody on anti-Human IgG Capture tips, HIS-tagged human HER3 at 30.3, 60.5, 121 and 242 nM.

B1: 10D1 GASD variant (antibody, human IgG1, kappa)
heavy: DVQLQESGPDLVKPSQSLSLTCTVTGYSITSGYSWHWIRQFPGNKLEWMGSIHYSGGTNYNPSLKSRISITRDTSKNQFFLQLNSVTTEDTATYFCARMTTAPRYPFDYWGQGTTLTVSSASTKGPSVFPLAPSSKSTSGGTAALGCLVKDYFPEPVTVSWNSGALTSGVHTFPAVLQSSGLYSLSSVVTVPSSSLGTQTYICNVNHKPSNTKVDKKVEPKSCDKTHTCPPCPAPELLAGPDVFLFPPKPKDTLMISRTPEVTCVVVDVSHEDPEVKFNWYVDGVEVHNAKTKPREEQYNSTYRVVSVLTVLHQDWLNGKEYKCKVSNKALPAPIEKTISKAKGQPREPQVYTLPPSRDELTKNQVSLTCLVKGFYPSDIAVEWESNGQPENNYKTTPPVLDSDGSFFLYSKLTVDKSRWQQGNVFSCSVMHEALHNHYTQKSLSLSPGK
light: DIVMTQSQKFMSTSVGDRVSVTCKASQIVGSNVAWYQQKPGQSPKPLIYSASYRYSGVPDRFTASGSGTDFTLTITNVQSEDLAEYFCQQYSSHPLTFGAGTKLELKRTVAAPSVFIFPPSDEQLKSGTASVVCLLNNFYPREAKVQWKVDNALQSGNSQESVTEQDSKDSTYSLSSTLTLSKADYEKHKVYACEVTHQGLSSPVTKSFNRGEC
notes: also called Fc-modified anti-HER3 antibody clone 10D1 comprising GASD substitutions in CH2 region
In experiment [1], B1 came in with a Kd of 58 nM, a koff of 0.009 s⁻¹ and an on-rate constant (kon) of 160000 M⁻¹ s⁻¹.

B2: anti-HER3 clone 10A6 IgG1 (antibody, V domains shown)
VH: DVQLQESGPGLVKPSQSLSLTCSVTGNFITSGYFWNWIRQFPGNKLEWMGFISYDGSNNYKPSLKNRISITRDTSKNQFFLKLNSVTTEDTATYYCARENYGFGFDYWGQGTTLTVSS
VL: DIVLTQSPSSLPVSIGEKVTMSCKSSQSLLYSDNQKNYLAWYQQKPGQSPKLLIYWASTWKSGVPDRFTGSGSGTDFTLTISSVKAEDLAVYYCQQYFTFPWTFGGGTKLEIKR
notes: Human-mouse chimeric IgG1/kappa
On to B2, for which the binding result in experiment [2] is reported as “binds”.

B3: M-05-74 (antibody, V domains shown)
VH: QVQLQQSGAELAKPGASVKMSCKTSGYTLTDYWIHWVKQRPGQGLEWIGYINPYTGYTESNQKFKDKATLTADKSSNTAYIQLSSLTSEDSAVYYCARPYYYGDYWGQGTTLTVSS
VL: QIVLTQSPAIMSASPGERVTITCSASSSVSYMHWFQQKPGTSPKLLIYSTSNLASGVPARFSGSGSGTSYSLTISRMEAEDAATYYCQQRSSYPFTFGSGTKLEIK
As to B3, the half-inhibitory concentration (IC50) in the experiment with His-tagged human HER3 [3] turned out to be 80.2 nM.

B4: anti-HER3 clone 4-35-B4 IgG1 (antibody, V domains shown)
VH: EVQLQQSGAELVKPGASVKLSCTASGFNIKDTYIHWVKQRPDQGLEWIGKIIDPANGNTNYDPKFQGKATITADTSSNTAYLQLSSLSSEDTAVYFCARGLHWGQGTTLTVSS
VL: DIVLTQSPASLAVSLGQRATISCRASKSVSTSGYSYMHWYQQKPGQPPKLLIYLASNLESGVPARFSGSGSGTDFTLNIHPVEEEDAATYYCQHSRELPYTFGGGTKLEIKR
notes: as for B2
In the case of B4, in the experiment with His-tagged human HER3 [4], the dissociation constant Kd was found to be 50.3 nM. In other words, the double-digit nanomolar range.

B5: 10D1F hIgG1 N297Q (antibody)
heavy chain: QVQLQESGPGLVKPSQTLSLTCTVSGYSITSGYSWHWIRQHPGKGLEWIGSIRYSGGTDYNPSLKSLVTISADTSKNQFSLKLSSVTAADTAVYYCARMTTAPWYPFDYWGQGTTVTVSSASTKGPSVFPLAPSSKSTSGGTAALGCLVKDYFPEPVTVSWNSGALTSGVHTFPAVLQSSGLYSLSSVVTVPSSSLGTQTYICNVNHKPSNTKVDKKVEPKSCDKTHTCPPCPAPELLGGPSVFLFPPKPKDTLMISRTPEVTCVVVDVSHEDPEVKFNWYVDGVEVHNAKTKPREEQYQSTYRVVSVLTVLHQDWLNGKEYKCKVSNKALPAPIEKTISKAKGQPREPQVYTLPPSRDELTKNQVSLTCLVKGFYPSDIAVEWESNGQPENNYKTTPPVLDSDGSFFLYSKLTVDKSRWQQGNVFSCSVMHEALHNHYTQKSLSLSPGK
light chain: DIQMTQSPSSVSASVGDRVTITCKASQIVGSNVAWYQQKPGKAPEPLIYSASYLYSGVPSRFSGSGSGTDFTLTISSLQPEDFATYYCQQYSSHPLTFGQGTKLEIKRTVAAPSVFIFPPSDEQLKSGTASVVCLLNNFYPREAKVQWKVDNALQSGNSQESVTEQDSKDSTYSLSSTLTLSKADYEKHKVYACEVTHQGLSSPVTKSFNRGEC
As for B5, the results for the Kd with FcRn and in the experiment with moFcRn were 54.6 nM and 13.7 nM, respectively.

B6: 10D1F.FcB (antibody, human IgG1, kappa)
heavy: QVQLQESGPGLVKPSQTLSLTCTVSGYSITSGYSWHWIRQHPGKGLEWIGSIRYSGGTDYNPSLKSLVTISADTSKNQFSLKLSSVTAADTAVYYCARMTTAPWYPFDYWGQGTTVTVSSASTKGPSVFPLAPSSKSTSGGTAALGCLVKDYFPEPVTVSWNSGALTSGVHTFPAVLQSSGLYSLSSVVTVPSSSLGTQTYICNVNHKPSNTKVDKKVEPKSCDKTHTCPPCPAPELLAGPDVFCFPPKPKDTLMISRTPEVTCVVVDVSHEDPEVKFNWYVDGVEVHNAKTKPREEQYNSTYRVVSVLTVLHQDWLNGKEYKCKVSNKALPLPEECTISKAKGQPREPQVYTLPPSRDELTKNQVSLTCLVKGFYPSDIAVEWESNGQPENNYKTTPPVLDSDGSFFLYSKLTVDKSRWQQGNVFSCSVMHEALHNHYTQKSLSLSPGK
light: DIQMTQSPSSVSASVGDRVTITCKASQIVGSNVAWYQQKPGKAPEPLIYSASYLYSGVPSRFSGSGSGTDFTLTISSLQPEDFATYYCQQYSSHPLTFGQGTKLEIKRTVAAPSVFIFPPSDEQLKSGTASVVCLLNNFYPREAKVQWKVDNALQSGNSQESVTEQDSKDSTYSLSSTLTLSKADYEKHKVYACEVTHQGLSSPVTKSFNRGEC
notes: also called 10D1F.B
With B6, the dissociation constant Kd in experiment [5] came out at 82.1 nM; with FcgRIIA (R167), 400 nM; with FcgRIIA (H167), 561 nM; in the experiment with FcgRIIIA (F158), 162 nM; with FcgRIIB, 580 nM; with FcRn it was 37.4 nM. The Kd was found to be 15.2 nM with moFcRn, 55.4 nM with moFcgRIV and 0.0222 nM with His-tagged human HER3 [6]. For the same molecule, the koff with His-tagged human HER3 [6] came to 4.96e-06 s⁻¹. Also, the kon in the experiment with His-tagged human HER3 [6] came out at 223000 M⁻¹ s⁻¹.

What is called Kd is the equilibrium constant for the complex coming apart. A low value points to tighter binding. What is called koff is the rate constant with which the complex falls apart. Broadly, the kon is a measure of how fast the partners come together. What is called IC50 is the point on the concentration scale where inhibition reaches its midpoint.
